Test results: patent EP3088890B1 (Chugai Seiyaku Kabushiki Kaisha, dated 2020)
One block for each binder: values may come before it.

How the values were obtained:
[1] = biological target: T1, AW5, C-terminally His-tagged recombinant product of positions 1 to 357 of GPC3 (human, UniProt P51654 25-357); assay: Western blot, pellets of CHO cells expressing the product
T1 construct: Expressed in CHO cells, cell pellets used in Western blot; The range is as printed and starts at position 1; also called AW5 (1-357); not shown: C-terminal His tag
T1 sequence (P51654 25-357): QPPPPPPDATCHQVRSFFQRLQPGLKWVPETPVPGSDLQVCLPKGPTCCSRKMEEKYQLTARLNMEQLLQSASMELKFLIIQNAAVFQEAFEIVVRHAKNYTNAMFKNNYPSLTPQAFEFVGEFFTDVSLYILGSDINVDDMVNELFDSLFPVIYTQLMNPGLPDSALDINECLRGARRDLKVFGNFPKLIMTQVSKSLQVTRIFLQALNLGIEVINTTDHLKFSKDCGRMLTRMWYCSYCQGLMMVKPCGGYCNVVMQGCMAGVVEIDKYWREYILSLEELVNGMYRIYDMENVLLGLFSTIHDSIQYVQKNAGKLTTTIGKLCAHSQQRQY

[2] = biological target: GPC3 core (sGPC3-His) protein (human) (UniProt P51654); assay: competition ELISA on plate-bound sGPC3; unlabeled GT607 (100-fold) against competitor biotin-labeled GT114; signal of the labeled antibody
GPC3 core (sGPC3-His) protein (human), sequence (P51654 25-563 S495A/S509A): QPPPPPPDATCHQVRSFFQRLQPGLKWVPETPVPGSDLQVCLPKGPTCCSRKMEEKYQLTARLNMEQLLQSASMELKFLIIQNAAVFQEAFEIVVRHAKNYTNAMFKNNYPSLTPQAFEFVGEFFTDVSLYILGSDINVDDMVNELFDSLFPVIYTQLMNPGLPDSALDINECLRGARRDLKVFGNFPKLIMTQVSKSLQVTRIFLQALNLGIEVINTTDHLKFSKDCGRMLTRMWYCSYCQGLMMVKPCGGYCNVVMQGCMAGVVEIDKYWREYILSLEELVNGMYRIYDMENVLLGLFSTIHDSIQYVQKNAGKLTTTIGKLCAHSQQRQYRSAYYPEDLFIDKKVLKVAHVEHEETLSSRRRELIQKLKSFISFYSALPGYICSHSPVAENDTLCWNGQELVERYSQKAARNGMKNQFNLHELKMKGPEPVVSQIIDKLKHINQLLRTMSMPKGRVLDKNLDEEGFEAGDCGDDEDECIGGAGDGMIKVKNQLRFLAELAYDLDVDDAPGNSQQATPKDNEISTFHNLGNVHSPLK

[3] = biological target: GPC3 core (sGPC3-His) protein (human) (UniProt P51654); assay: competition ELISA on plate-bound sGPC3; unlabeled GT607 (100-fold) against competitor biotin-labeled GT607; signal of the labeled antibody
[4] = biological target: GPC3 core (sGPC3-His) protein (human) (UniProt P51654); assay: competition ELISA on plate-bound sGPC3; unlabeled GT114 (100-fold) against competitor biotin-labeled GT607

binding result [1]: no binding
B1: GT165 antibody (antibody, IgG1, V domains shown)
VH: QVQLQQSGAELVGPGASVKISCKAFGYTFTNHHINWVKQRPGQGLDWIGYINPYNDYTNYNQKFKGKATLTVDKSSSTAYMELSSLTSEDSAVYYCARSDPAWFAYWGQGTLVTVSA
VL: DIQMTQSPSSLSASLGGKVTITCKASQDINKNIAWYQHKPGKGPRLLIWYTYTLQPGIPSRFSGSGSGRDYSFSISNLEPEDIATYYCLQYDNLPFTFGTGTKLEIKR

O.D. 450 [2]: 1.13 O.D. 450
O.D. 450 [3]: 0.135 O.D. 450
B2: GT607 antibody (antibody, IgG1, V domains shown)
VH: EVQLVESGGDVVRPGGSLKLSCAASGFTFSSYGMSWVRQLPDKRLEWVASVGNGGSYRYYPENLKGRFTISRDNTKNTLYLQISGLKSEDTAIYYCARRGAFPYFDVWGAGTTVTVSS
VL: QIVLTQSPAIMSASPGEKVTLACSASSSVTYMHWYQQKSGTSPKRWIYETSKLASGVPPRFSGSGSGTSYSLTISTMEAEDAATYYCQQWSSNPLTFGAGTKLELKR

Inhibitory effect (%) [4]: 86%
B3: GT114 antibody (antibody, IgG1, V domains shown)
VH: DVQLQESGPGLVKPSQSLSLTCTVTGYSITSDSAWNWIRQFPGNKLEWMAYIMYSGITSYNPSLKSRISITRDTAKNQFFLQLNSVTTEDSATYYCSRGYWYFDVWGAGTTVTVSS
VL: QIVLTQSPAIMSASLGEEITLTCSASSSVSYMHWYQQKSGTSPKLLIYSTSILASGVPSRFSGSGSGTFYSLTISSVEAEDAADYYCLQWITYRTFGGGTKLEIKR
